# Source: patent publication US20220041711A1 (NGM BIOPHARMACEUTICALS, published 2022)
# Where two headings read alike, the source gives them in different places.
# T1: human LAIR-1-ECD (human, UniProt Q6GTX8 22-165)
# T1 construct: Recombinant, expressed in mammalian cells; also called extracellular region of human LAIR-1
# T1 chain: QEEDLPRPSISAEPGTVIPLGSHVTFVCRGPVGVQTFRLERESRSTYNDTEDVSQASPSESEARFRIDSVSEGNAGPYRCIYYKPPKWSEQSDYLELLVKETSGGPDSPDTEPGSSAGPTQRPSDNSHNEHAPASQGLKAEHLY
# T2: cyno LAIR-1-ECD (cynomolgus monkey)
# T2 construct: Recombinant, expressed in mammalian cells; also called extracellular region of cyno LAIR-1
# T2 chain: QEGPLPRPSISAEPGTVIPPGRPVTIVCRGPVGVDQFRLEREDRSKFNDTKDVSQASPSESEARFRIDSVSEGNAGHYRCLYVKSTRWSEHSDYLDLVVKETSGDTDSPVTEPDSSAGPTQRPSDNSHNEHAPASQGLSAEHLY
# T3: human LAIR-2 (form in the assay not stated) (human, UniProt Q6ISS4 22-152)
# T3 sequence: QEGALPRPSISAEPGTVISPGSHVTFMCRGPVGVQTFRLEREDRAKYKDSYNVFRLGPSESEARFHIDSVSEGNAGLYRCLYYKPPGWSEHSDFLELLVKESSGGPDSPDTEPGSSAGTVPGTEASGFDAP
# T4: mouse LAIR-1 (form in the assay not stated) (mouse, UniProt Q8BG84 22-144, limits assumed)
# T4 sequence: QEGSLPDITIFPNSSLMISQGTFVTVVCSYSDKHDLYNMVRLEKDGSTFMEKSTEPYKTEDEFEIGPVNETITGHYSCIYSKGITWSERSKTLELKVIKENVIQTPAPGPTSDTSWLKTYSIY
# T5: human LAIR-1-Fc (human, UniProt Q6GTX8 22-165)
# T5 construct: also called biotinylated human LAIR-1-Fc; not shown: a Fc region
# T5 chain: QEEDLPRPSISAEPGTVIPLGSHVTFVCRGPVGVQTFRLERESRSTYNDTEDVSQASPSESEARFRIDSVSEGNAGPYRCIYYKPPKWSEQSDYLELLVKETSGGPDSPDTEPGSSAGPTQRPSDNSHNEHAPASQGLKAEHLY
# Experiments:
# human LAIR-1-ECD [1] = molecular target: T1, human LAIR-1-ECD; assay: SPR (Biacore); antibody captured by anti-Fc; LAIR-1-ECD injected
# cyno LAIR-1-ECD = molecular target: T2, cyno LAIR-1-ECD; assay: as above
# [2] = molecular target: T3, human LAIR-2 (form in the assay not …); assay: ELISA and FACS screening
# [3] = molecular target: T4, mouse LAIR-1 (form in the assay not …); assay: not described
# human LAIR-1-ECD [4] = molecular target: T1, human LAIR-1-ECD; assay: SPR (Biacore) as in Example 2
# [5] = molecular target: T6, human LAIR-1-CD3ζ chimeric receptor on NFAT-GFP reporter cells (human, UniProt P20963 31-164, limits assumed); assay: cell-based or functional assay
# Target sequence in this assay (P20963 other isoform, or with tags, fused parts or gaps mutant limits assumed): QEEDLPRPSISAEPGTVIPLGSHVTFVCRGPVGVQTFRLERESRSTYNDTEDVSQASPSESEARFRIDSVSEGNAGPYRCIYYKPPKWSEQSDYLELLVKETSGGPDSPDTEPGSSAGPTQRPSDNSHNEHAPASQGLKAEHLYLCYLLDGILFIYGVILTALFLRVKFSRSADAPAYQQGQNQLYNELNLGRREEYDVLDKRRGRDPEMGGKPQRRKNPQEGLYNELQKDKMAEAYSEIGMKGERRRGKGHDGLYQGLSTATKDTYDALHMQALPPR
# [6] = molecular target: T7, cyno LAIR-1-CD3ζ chimeric receptor on NFAT-GFP reporter cells (cynomolgus monkey; human); assay: cell-based or functional assay
# Target sequence in this assay (P20963 other isoform, or with tags, fused parts or gaps mutant limits assumed): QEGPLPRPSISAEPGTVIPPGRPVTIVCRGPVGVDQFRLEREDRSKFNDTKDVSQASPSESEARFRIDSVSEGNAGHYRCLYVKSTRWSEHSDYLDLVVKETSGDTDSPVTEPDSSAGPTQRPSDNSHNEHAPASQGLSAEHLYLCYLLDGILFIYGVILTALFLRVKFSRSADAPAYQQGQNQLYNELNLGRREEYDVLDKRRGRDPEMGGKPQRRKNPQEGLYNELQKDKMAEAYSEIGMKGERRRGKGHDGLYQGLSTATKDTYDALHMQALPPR
# human LAIR-1-Fc = molecular target: T5, human LAIR-1-Fc; assay: ELISA blocking: plate coated with 5 µg/mL human collagen type 1, antibody titrated, 1 µg/mL biotinylated human LAIR-1-Fc, streptavidin-HRP, OD650
# [7] = molecular target: T6, human LAIR-1-CD3ζ chimeric receptor on …; assay: cell-based or functional assay; remark: listed apart in the source
# [8] = molecular target: T7, cyno LAIR-1-CD3ζ chimeric receptor on …; assay: cell-based or functional assay; remark: listed apart in the source
# [9] = molecular target: T6, human LAIR-1-CD3ζ chimeric receptor on …; assay: cell-based or functional assay; remark: listed apart in the source
# [10] = molecular target: T4, mouse LAIR-1 (form in the assay not …); assay: SPR (Biacore)
Binder,Kd (human LAIR-1-ECD [1]) [nM],koff (human LAIR-1-ECD [1]) [s⁻¹],kon (human LAIR-1-ECD [1]) [M⁻¹ s⁻¹],Kd (cyno LAIR-1-ECD) [nM],koff (cyno LAIR-1-ECD) [s⁻¹],kon (cyno LAIR-1-ECD) [M⁻¹ s⁻¹],binding result [2],binding result [3],further results
"anti-LAIR-1 antibody 108D10 (antibody, V domains shown, Monoclonal antibody from immunized mice (hybridoma)) VH: EVQLVETGGGLVQPKGSLKLSCAASGFTFNINAMNWVRQAPGKGLEWVARIRTKNNNYATYYADSVKDRFTISRDDSESMLYLQMNNLKTEDTAMYYCVRDRYGGAMAYWGQGTSVTVSS VL: DIQMTQSSSSFSVSLGDRVTITCKASEDIYNRLAWYQQKPGNVPRLLISSATSLETGVPSRFSGSGSGKDYTLSLTSLQSEDVATYYCQQYWTIPYTFGGGTKLEIK",0.4,0.00043,1.1e+06,21,0.0039,190000,no binding,no binding,–
"humanized anti-LAIR-1 antibody Hz62G10.v1 (antibody, human IgG1, kappa, N297G, V domains shown, Humanized 62G10) VH: EVQLVESGGGLVKPGGSLRLSCAASGFTFNINAMNWVRQAPGKGLEWVARIRTKNNNFATYYADSVKDRFTISRDDSKNTLYLQMNSLKTEDTAVYYCVRGPYFDYWGQGTLVTVSS VL: DIQMTQSPSSLSASVGDRVTITCLASQTIGTWLAWYQQKPGKAPKLLIYAATSLADGVPSRFSGSGSGTDFTLTISSLQPEDFATYYCQQLYSTPYTFGGGTKVEIKR",–,–,–,–,–,–,–,no binding,Kd (human LAIR-1-ECD [4]): 1.1 nM; koff (human LAIR-1-ECD [4]): 0.00079 s⁻¹; kon (human LAIR-1-ECD [4]): 700000 M⁻¹ s⁻¹; IC50 (read off the curve): % GFP+ human LAIR-1 reporter cells on coated MARCO-his [5]: ~0.05 nM; IC50 (read off the curve): % GFP+ human LAIR-1 reporter cells on coated collagen 1 [5]: ~0.04 nM; IC50 (read off the curve): % GFP+ human LAIR-1 reporter cells on coated collagen 4 [5]: ~0.03 nM; IC50 (read off the curve): % GFP+ cyno LAIR-1 reporter cells on coated MARCO-his [6]: ~0.2 nM; IC50 (read off the curve): % GFP+ cyno LAIR-1 reporter cells on coated collagen 1 [6]: ~0.4 nM; IC50 (read off the curve): % GFP+ cyno LAIR-1 reporter cells on coated collagen 4 [6]: ~0.2 nM; IC50 (read off the curve) (human LAIR-1-Fc): ~3 nM; IC50 (read off the curve): % GFP+ human LAIR-1 reporter cells on polymerized collagen matrix [7]: ~0.03 nM; IC50 (read off the curve): % GFP+ cyno LAIR-1 reporter cells on polymerized collagen matrix [8]: ~0.2 nM
"anti-LAIR-1 antibody 47A1 (antibody, V domains shown, Monoclonal antibody from immunized mice (hybridoma)) VH: EVQLVESGGGLVQPKGSLKLSCAASGFTFNTYAIHWVRQAPGKGLEWVARIRSKSTNYATYYADSVKDRFTISRDDSQSMVFLQMNNLKTEDTAMYYCVRENWYYYALDYWGQGTSVTVSS VL: DIQMTQSPASLSASVGETVTITCRASGNIHNYLTWYQQKQGKSPQVLVYNAKTLEDGVPSRFSGSESGTQYSLKINSLQPEDFGSYYCQHFWSTPFTFGSGTKLEIK",0.92,0.00055,590000,18,0.0057,320000,no binding,no binding,–
"anti-LAIR-1 antibody ch57D12 (antibody, V domains shown, The prefix 'ch' is not defined) VH: QVQLQQSGAELARPGASVNLSCRASGYSFTSFGISWVKQRTGQGLEWIGEIYPRSDNTFYNEKFKGKATLTADKSSSTAYMELRSLTSEDSAVYFCARHFGSSSFDYWGQGTTLTVSS VL: ENVLTQSPPIMAASLGQKVTMTCSASSSVSSIYFHWYQQKSGTSPKPLIHRASNLASGVPARFSGSGSGTSYSLTISSVEAEDDATYYCQQWSGYPLTFGGGTKLEIK",–,–,–,–,–,–,–,–,IC50 (read off the curve): % GFP+ human LAIR-1 reporter cells on coated MARCO-his [9]: ~0.2 nM; IC50 (read off the curve): % GFP+ human LAIR-1 reporter cells on coated collagen 1 [9]: ~0.7 nM; IC50 (read off the curve): % GFP+ human LAIR-1 reporter cells on coated collagen 4 [9]: ~0.4 nM; IC50 (read off the curve): % GFP+ human LAIR-1 reporter cells on coated MARCO-his [5]: ~0.3 nM; IC50 (read off the curve): % GFP+ human LAIR-1 reporter cells on coated collagen 1 [5]: ~0.3 nM; IC50 (read off the curve): % GFP+ human LAIR-1 reporter cells on coated collagen 4 [5]: ~0.2 nM; IC50 (read off the curve): % GFP+ cyno LAIR-1 reporter cells on coated MARCO-his [6]: ~1 nM; IC50 (read off the curve): % GFP+ cyno LAIR-1 reporter cells on coated collagen 1 [6]: ~2 nM; IC50 (read off the curve): % GFP+ cyno LAIR-1 reporter cells on coated collagen 4 [6]: ~0.8 nM; IC50 (read off the curve) (human LAIR-1-Fc): ~5 nM; IC50 (read off the curve): % GFP+ human LAIR-1 reporter cells on polymerized collagen matrix [7]: ~0.3 nM; IC50 (read off the curve): % GFP+ cyno LAIR-1 reporter cells on polymerized collagen matrix [8]: ~1 nM
"anti-LAIR-1 antibody 57D12 (antibody, V domains shown, Monoclonal antibody from immunized mice (hybridoma)) VH: QVQLQQSGAELARPGASVNLSCRASGYSFTSFGISWVKQRTGQGLEWIGEIYPRSDNTFYNEKFKGKATLTADKSSSTAYMELRSLTSEDSAVYFCARHFGSSSFDYWGQGTTLTVSS VL: ENVLTQSPPIMAASLGQKVTMTCSASSSVSSIYFHWYQQKSGTSPKPLIHRASNLASGVPARFSGSGSGTSYSLTISSVEAEDDATYYCQQWSGYPLTFGGGTKLEIK",0.27,4.5e-05,170000,7.3,0.00078,110000,no binding,no binding,–
"anti-LAIR-1 antibody 62G10 (antibody, V domains shown, Monoclonal antibody from immunized mice (hybridoma)) VH: EVQLVETGGGLVQPKGSLKLSCATSGFTFNINAMNWVRQAPGKGLEWVARIRTKNNNFATYYADSVKDRFTISRDDSQSMLYLQMNNLKTEDTAMYYCVRGPYFDYWGQGTTLTVSS VL: DIQMTQSPASQSASLGESVTITCLASQTIGTWLAWYQQKPGKSPQLLIYAATSLADGVPSRFSGSGSGTKFSFKISNLQAEDFVTYYCQQLYSTPYTFGGGTKLEIK",0.32,0.00018,550000,5.1,0.001,200000,no binding,no binding,–
"ch43H2 (antibody, V domains shown, also called purified ch43H2) VH: EVQLVESGGGLVQPGRSLKVSCAASGFTFSNYGIHWIRQAPTKGLEWVASISPSGRSTYFRDSVKGRFTISRDNAKNTLYLQLDSLRSEDTATYYCATGINYSSFDYWGQGVMVTVSS VL: DIVMTQSPTSMSISVGDRVTMNCKASQNVGSHVDWYQQKTGQSPKLLISTASNRYTGVPDRFTGSGSGTDFTFTINNMQTEDLAVYYCMQSNSYPPTFGGGTKLELK",–,–,–,–,–,–,–,–,Kd [10]: 1.1 nM; koff [10]: 0.00057 s⁻¹; kon [10]: 530000 M⁻¹ s⁻¹

# Further lines, with some results ahead:
Kd (human LAIR-1-ECD [1]) [nM],koff (human LAIR-1-ECD [1]) [s⁻¹],kon (human LAIR-1-ECD [1]) [M⁻¹ s⁻¹],Kd (cyno LAIR-1-ECD) [nM],koff (cyno LAIR-1-ECD) [s⁻¹],kon (cyno LAIR-1-ECD) [M⁻¹ s⁻¹],binding result [2],binding result [3],Binder,further results
0.46,4.9e-05,110000,9.6,0.00077,80000,no binding,no binding,"anti-LAIR-1 antibody 61H4 (antibody, V domains shown, Monoclonal antibody from immunized mice (hybridoma)) VH: EVQLQQSGPEVLKPGASVKISCKASGYTFTDYYYMNWVKQSHGKSLEWIGYIYPNNGATSYNQKFKGKATLTVDKSSSTAYMELRSLTSEDSAVYYCARDGYSSNYYTMDYWGQGTSVTVSS VL: DVQMIQSPSSLSASLGDIVTMTCQASQGTSINLNWFQQKPGKAPKLLIYGASNLEDGVPSRFSGSRYGTDFTLTISSLEDEDMATYFCLQHTYLPYTFGGGTKLEIK",–
0.087,0.0001,1.2e+06,2.5,0.00044,180000,no binding,no binding,"anti-LAIR-1 antibody 47H1 (antibody, V domains shown, Monoclonal antibody from immunized mice (hybridoma)) VH: EVQLVETGGGLVQPKGSLKLSCAASGFTFNINAMNWVRQAPGKGLEWVARIRTKNNNYATFYADSVKDRFTISRDDSQSMLYLQMNNLKTDDTAMYYCVRDRAGFFAYWGQGTPVTVSA VL: DIQMTQSPASQSASLGESVTITCLASQTIGTWLGWYRQKPGKSPQLLIYAATSLADGVPSRFSGSGSGTKFSFKISSLQAEDFVIYYCQQLYSTPLTFGSGTKLEIK",–
